Where no end group is shown, it is not given here.
Tests used:
[1] = target: T1, Human BAFF (residues 82-285) (human, UniProt Q9Y275 82-285); assay: competition ELISA; immobilized BAFF, biotinylated miniBR3 tracer (FIG. 7)
T1 construct: also called BAFF82-285
Method: The plate was washed with PBS and blocked for 1 hr with 200 μl of 0.2% BSA in PBS at room temperature. […] The plate was washed with PBS/Tween-20 and incubated with 100 μl/well of 0.1 U/ml Streptavidin-POD (Boehringer Mannheim) for 15 minutes at room temperature. After washing the plate with PBS/0.05% Tween-20 followed by a final wash in PBS, the plate was incubated for 5 min with 100 μl/well PBS substrate solution containing 0.8 mg/ml OPD (Sigma) and 0.01% H₂O₂.

[2] = target: Murine APRIL (K104-L241) thioredoxin fusion protein (murine) (UniProt Q9D777); assay: SPR (BIAcore 3000), APRIL immobilized, receptor as analyte, 1:1 model
[3] = target: T1, Human BAFF (residues 82-285); assay: SPR (BIAcore 3000), BAFF immobilized, receptor as analyte
Method: Measurement of binding constants for receptors to ligands. […] CM5 chips from BIAcore were docked according to manufacturer instructions. Then, BIAcore system was primed with 0.2 μm filtered buffer containing 10 mM Hepes pH 7.2, 150 mM NaCl, 0.005% Tween20. After buffer priming, the flow cells were normalized with 70% glycerol. Each flow cell surface was activated individually in preparation for linkage of the ligand to the chip with a 1:1 mixture of EDC(N-ethyl-N′-(3-dimethyl aminopropyl)-carbodiimide hydrochloride) and NHS(N-hydroxysuccinimide). […] Generally, the ligand to be immobilized (30 μg/ml in 10 mM NaOAc, pH 5 buffer) was injected into the system at 40 μl/min. Once approximately 400 RU was generated, the flow cell was blocked with ethanolamine. […] The system was then primed again.
The ligand-receptor complex was allowed to dissociate by washing the flow cell at 30 μl/min for 600 seconds. Alternatively, if several binding measurements over the same flow cell were to be performed, the ligand-receptor complex was allowed to dissociate by washing the flow cell at 30 μl/min for 900 seconds. Sensorgrams were recorded for each binding assay. A 1:1 Langmuir binding equation was used to simultaneously fit the association and dissociation rates of the ligand-analyte interactions. kₐ, kd, KD were calculated using curve fit analysis software provided with the BiaCore instrument

T1 sequence (Q9Y275 82-285): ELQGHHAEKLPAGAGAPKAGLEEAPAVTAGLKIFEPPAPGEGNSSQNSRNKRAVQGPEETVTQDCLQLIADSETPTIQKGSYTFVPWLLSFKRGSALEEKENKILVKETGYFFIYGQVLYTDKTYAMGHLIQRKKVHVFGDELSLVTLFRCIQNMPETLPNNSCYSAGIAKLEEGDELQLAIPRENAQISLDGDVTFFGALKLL
Murine APRIL (K104-L241) thioredoxin fusion protein (murine), sequence (Q9D777 104-241, form in doubt): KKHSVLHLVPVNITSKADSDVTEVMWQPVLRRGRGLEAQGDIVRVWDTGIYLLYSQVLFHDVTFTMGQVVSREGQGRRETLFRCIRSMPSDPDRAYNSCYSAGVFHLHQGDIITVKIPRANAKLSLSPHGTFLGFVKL

Row | Binder | IC50 [1] | koff [2] | binding result [3]
1 | AGQCSQNEYFDSLLHACIPCQLRCSSNTPPLTCQRYCNASVTNSVKG (Fc fusion, not shown: a dimerising Fc or GST, also called wt BCMA-Fc; BCMA-Fc wt) [BCMA-Fc (BCMA(wt)-Fc immunoadhesin)] | 7 to 10 nM | 0.0001 s⁻¹ | –
2 | MAGQCSQNEYFDSLLHACIPCQLRCSSNTPPLTCQRYCNASVTNSVKGTN (receptor, not shown: small tags and cut ends, not fully specified (N-terminus); ends and bridges not checked; also: mixture of glycosylated and non-glycosylated species, also called BCMA(baculovirus); baculovirus BCMA) [BCMA ECD from baculovirus expression (human BCMA residues 4-53, His-tagged)] | – | – | no binding (tested: analyte 6.25 nM to 200 nM)
